According to patent US20070287163A1 (CRUCELL HOLLAND B V, published 2007):

Target: T1, CD46 (human (HEp-2 cells), UniProt P15529)
T1 construct: endogenous, cell-surface biotinylated, solubilised in Triton X-100 lysate; The bands in the CR2300 lane were not separately identified
T1 sequence (antigen, looked up): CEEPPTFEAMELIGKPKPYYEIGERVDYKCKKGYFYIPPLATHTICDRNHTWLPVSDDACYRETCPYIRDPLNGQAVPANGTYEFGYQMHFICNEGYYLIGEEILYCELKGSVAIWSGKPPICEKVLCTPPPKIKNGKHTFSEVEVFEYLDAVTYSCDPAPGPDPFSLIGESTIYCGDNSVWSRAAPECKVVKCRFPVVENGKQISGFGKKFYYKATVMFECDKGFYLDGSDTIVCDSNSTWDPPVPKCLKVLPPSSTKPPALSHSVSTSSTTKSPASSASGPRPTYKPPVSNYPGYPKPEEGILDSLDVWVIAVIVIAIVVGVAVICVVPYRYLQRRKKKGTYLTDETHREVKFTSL
Test: immunoprecipitation from surface-biotinylated HEp-2 lysate, streptavidin-HRP blot
Method: To identify whether CR2407 reacted with a membrane extractable antigen, the cell surface of 10⁸ HEp-2 cells were biotinylated during 1 hour at room temperature with a final concentration of 2 mg sulfo-NHS-LC-LC-biotin in physiological buffer (0.2 M phosphate buffer containing 0.12 M NaCl, pH 7.4). Subsequently, the remaining free biotin was blocked during an incubation of 30 minutes at room temperature with 10 mM glycine in physiological buffer. After labeling, the cells were washed with cold physiological buffer and solubilized for 30 minutes on ice at a concentration of 3×10⁷ cells/ml in TX-100 lysis buffer (1% Triton X-100, 150 mM NaCl, 50 mM Tris pH 7.4, protease inhibitors (Roche)). The unsoluble material was removed by centrifugation for 30 minutes at 4° C. at 20,000*g.
Hereafter, the biotinylated solubilized lysates were pre-cleared with protein-A beads for 2 hours at 4° C. 4 μg of CR2407 and the negative control antibody CR2428 and positive control antibody CR2300 (directed against CD46) were coupled to protein A beads at room temperature. Next, the pre-cleared samples were incubated with the above IgG's coupled to protein-A beads for 2 hours at 4° C. […] After blotting on PVDF membranes, the biotinylated proteins were detected with streptavidin-HRP (Amersham) and enhanced chemoluminescence (Amersham).

B1: CR2407 IgG1 (antibody, V domains shown)
VH: EVQLVESGGGLVQPGGSLRLSCAASGFTFSSYAMSWVRQAPGKGLEWVSAISGSGGSTYYADSVKGRFTISRDNSKDTLYLQMSSLKTEDTAVYYCARGSLLQFWGQGTLVTVSS
VL: SSELTQDPAVSVALGQTVRITCQGDSLRSYYASWYQQKPGQAPVLVIYGKNNRPSGIPDRFSGSSSGNTASLTITGAQAEDEADYYCNSRDSSGNHVVFGGGTKLTVLG
notes: also called anti-ALCAM IgG1
Does B1 bind?
Result: no binding (tested: 4 ug IgG on protein-A beads)
